Biological target: the molecule itself
Assay: SEC; Superdex 75 (10/300), proteins at 1 mg/ml, 100 mM NaCl, 20 mM HEPES pH 7.5; apparent molecular weight against mass standards

B1: APL1B LRR domain (APL1B-LRR) (domain or fragment, Anopheles gambiae, UniProt A7URS4 21-370, looked up)
chain: GQLSYKSMHLTPFTLSALLASFHKVEVLNLNGLQIEEIDTNAFAYAHTIQKLYMRFNVIRYLPPHVFQNVPLLTVLMLDRNDLSSLPPGIFHNTPKLTMLSMSNNNLERIEDDTFQATTSLQNLQLSSNRLTHVDLALIPSLFHVNVSYNLLSTLAIPIAVEELDASHNSINVVRGPVNVELTILKLQHNNLTDTAWLLNYPGLTDVDLSYNQLEIITIHHFVTMQRLERLHVSNNRLVAFDLYGRPIPTLKVLDLSHNHLMWVEHNQAQFDKLQYLYLDHNSIVTLKLSTSHTIKNLTLSHNDWDCNSLRALFRNVARPVVDDADQYCKIDYHLEHGLCCKESDKPYLD
modifications: N-linked glycosylation (predicted at Asn166, Asn211, Asn317; N-acetylglucosamine resolved at Asn166)
notes: APL1B of Anopheles gambiae, allele from strain G3, LRR domain; cloned as residues 1-370 with its signal peptide; the crystallized protein comprises APL1B 21-370 and a C-terminal 6xHis tag; Model in PDB 4XGO holds residues 25-364 (chain A) and 27-364 (chain B); source: T. ni cells (baculovirus, Bac-to-Bac), purified (Talon, MonoS, SEC); not shown: 6xHis, C-terminal, kept
- stoichiometry N: 2

Source: article PMC4361550, “Biophysical Analysis of Anopheles gambiae Leucine-Rich Repeat Proteins APL1A^1, APL1B and APL1C and Their Interaction with LRIM1” (PLoS ONE, 2015)
